Like-named read-outs stand apart in the source and are kept apart here. Square brackets hold non-standard residues; d marks the D form. Ends that are not written are not given here. * marks the point of attachment. 2‑(indol-3-yl)ethylcarbamoyl = O=C(NCCc1c[nH]c2ccccc12)*; Arg(Me) = CNC(=N)NCCC[C@H](N)C(=O)O; d3Pal = N[C@H](Cc1cccnc1)C(=O)O; Cha = N[C@@H](CC1CCCCC1)C(=O)O; azaGly = NNC(=O)O
B1: Compound No. 242: des(1)-[D-Tyr2,D-Trp3,AzaGly7,Arg(Me)9]MS10 (peptide)
peptide: [dY][dW]NSF[azaGly]L[Arg(Me)]F-NH2
B2: Compound No. 204: [D-Tyr1, Ala7, Arg(Me)9]MS10 (peptide)
peptide: [dY]NWNSFAL[Arg(Me)]F-NH2
modifications: N-terminus assumed
SMILES: CNC(=N)NCCC[C@H](NC(=O)[C@H](CC(C)C)NC(=O)[C@H](C)NC(=O)[C@H](Cc1ccccc1)NC(=O)[C@H](CO)NC(=O)[C@H](CC(N)=O)NC(=O)[C@H](Cc1c[nH]c2ccccc12)NC(=O)[C@H](CC(N)=O)NC(=O)[C@H](N)Cc1ccc(O)cc1)C(=O)N[C@@H](Cc1ccccc1)C(N)=O
notes: printed structure is the same as that of Compound No. 173
B3: Compound No. 211: [D-Tyr1,Thr5,Arg(Me)9]MS10 (peptide)
peptide: [dY]NWNTFGL[Arg(Me)]F-NH2
modifications: N-terminus assumed
SMILES: CNC(=N)NCCC[C@H](NC(=O)[C@H](CC(C)C)NC(=O)CNC(=O)[C@H](Cc1ccccc1)NC(=O)[C@@H](NC(=O)[C@H](CC(N)=O)NC(=O)[C@H](Cc1c[nH]c2ccccc12)NC(=O)[C@H](CC(N)=O)NC(=O)[C@H](N)Cc1ccc(O)cc1)[C@@H](C)O)C(=O)N[C@@H](Cc1ccccc1)C(N)=O
B4: Compound No. 215: [D-Tyr1,Thr2,Arg(Me)9]MS10 (peptide)
peptide: [dY]TWNSFGL[Arg(Me)]F-NH2
modifications: N-terminus assumed
SMILES: CNC(=N)NCCC[C@H](NC(=O)[C@H](CC(C)C)NC(=O)CNC(=O)[C@H](Cc1ccccc1)NC(=O)[C@H](CO)NC(=O)[C@H](CC(N)=O)NC(=O)[C@H](Cc1c[nH]c2ccccc12)NC(=O)[C@@H](NC(=O)[C@H](N)Cc1ccc(O)cc1)[C@@H](C)O)C(=O)N[C@@H](Cc1ccccc1)C(N)=O
B5: Compound No. 205: [D-Tyr1,Thr3,Arg(Me)9]MS10 (peptide)
peptide: [dY]NTNSFGL[Arg(Me)]F-NH2
modifications: N-terminus assumed
SMILES: CNC(=N)NCCC[C@H](NC(=O)[C@H](CC(C)C)NC(=O)CNC(=O)[C@H](Cc1ccccc1)NC(=O)[C@H](CO)NC(=O)[C@H](CC(N)=O)NC(=O)[C@@H](NC(=O)[C@H](CC(N)=O)NC(=O)[C@H](N)Cc1ccc(O)cc1)[C@@H](C)O)C(=O)N[C@@H](Cc1ccccc1)C(N)=O
B6: Compound No. 206: [D-Tyr1,Ile3,Arg(Me)9]MS10 (peptide)
peptide: [dY]NINSFGL[Arg(Me)]F-NH2
modifications: N-terminus assumed
SMILES: CC[C@H](C)[C@H](NC(=O)[C@H](CC(N)=O)NC(=O)[C@H](N)Cc1ccc(O)cc1)C(=O)N[C@@H](CC(N)=O)C(=O)N[C@@H](CO)C(=O)N[C@@H](Cc1ccccc1)C(=O)NCC(=O)N[C@@H](CC(C)C)C(=O)N[C@@H](CCCNC(=N)NC)C(=O)N[C@@H](Cc1ccccc1)C(N)=O
B7: Compound No. 212: [D-Tyr1,Ala5,Arg(Me)9]MS10 (peptide)
peptide: [dY]NWNAFGL[Arg(Me)]F-NH2
modifications: N-terminus assumed
SMILES: CNC(=N)NCCC[C@H](NC(=O)[C@H](CC(C)C)NC(=O)CNC(=O)[C@H](Cc1ccccc1)NC(=O)[C@H](C)NC(=O)[C@H](CC(N)=O)NC(=O)[C@H](Cc1c[nH]c2ccccc12)NC(=O)[C@H](CC(N)=O)NC(=O)[C@H](N)Cc1ccc(O)cc1)C(=O)N[C@@H](Cc1ccccc1)C(N)=O
B8: Compound No. 208: [D-Tyr1,Thr4,Arg(Me)9]MS10 (peptide)
peptide: [dY]NWTSFGL[Arg(Me)]F-NH2
B9: Compound No. 233: [D-Tyr1,Ile3,AzaGly7,Arg(Me)9]MS10 (peptide)
peptide: [dY]NINSF[azaGly]L[Arg(Me)]F-NH2
modifications: N-terminus assumed
SMILES: CC[C@H](C)[C@H](NC(=O)[C@H](CC(N)=O)NC(=O)[C@H](N)Cc1ccc(O)cc1)C(=O)N[C@@H](CC(N)=O)C(=O)N[C@@H](CO)C(=O)N[C@@H](Cc1ccccc1)C(=O)NNC(=O)N[C@@H](CC(C)C)C(=O)N[C@@H](CCCNC(=N)NC)C(=O)N[C@@H](Cc1ccccc1)C(N)=O
B10: Compound No. 213: [D-Tyr1,Val8,Arg(Me)9]MS10 (peptide)
peptide: [dY]NWNSFGV[Arg(Me)]F-NH2
B11: Compound No. 229: [D-Tyr1,Val3,Arg(Me)9]MS10 (peptide)
peptide: [dY]NVNSFGL[Arg(Me)]F-NH2
modifications: N-terminus assumed
SMILES: CNC(=N)NCCC[C@H](NC(=O)[C@H](CC(C)C)NC(=O)CNC(=O)[C@H](Cc1ccccc1)NC(=O)[C@H](CO)NC(=O)[C@H](CC(N)=O)NC(=O)[C@@H](NC(=O)[C@H](CC(N)=O)NC(=O)[C@H](N)Cc1ccc(O)cc1)C(C)C)C(=O)N[C@@H](Cc1ccccc1)C(N)=O
B12: Compound No. 235: [D-Tyr1,Ala3,AzaGly7,Arg(Me)9]MS10 (peptide)
peptide: [dY]NANSF[azaGly]L[Arg(Me)]F-NH2
modifications: N-terminus assumed
SMILES: CNC(=N)NCCC[C@H](NC(=O)[C@H](CC(C)C)NC(=O)NNC(=O)[C@H](Cc1ccccc1)NC(=O)[C@H](CO)NC(=O)[C@H](CC(N)=O)NC(=O)[C@H](C)NC(=O)[C@H](CC(N)=O)NC(=O)[C@H](N)Cc1ccc(O)cc1)C(=O)N[C@@H](Cc1ccccc1)C(N)=O
B13: Compound No. 234: [D-Tyr1,Val3,AzaGly7,Arg(Me)9]MS10 (peptide)
peptide: [dY]NVNSF[azaGly]L[Arg(Me)]F-NH2
modifications: N-terminus assumed
SMILES: CNC(=N)NCCC[C@H](NC(=O)[C@H](CC(C)C)NC(=O)NNC(=O)[C@H](Cc1ccccc1)NC(=O)[C@H](CO)NC(=O)[C@H](CC(N)=O)NC(=O)[C@@H](NC(=O)[C@H](CC(N)=O)NC(=O)[C@H](N)Cc1ccc(O)cc1)C(C)C)C(=O)N[C@@H](Cc1ccccc1)C(N)=O
B14: Compound No. 214: [D-Tyr1,Gln2,Arg(Me)9]MS10 (peptide)
peptide: [dY]QWNSFGL[Arg(Me)]F-NH2
modifications: N-terminus assumed
SMILES: CNC(=N)NCCC[C@H](NC(=O)[C@H](CC(C)C)NC(=O)CNC(=O)[C@H](Cc1ccccc1)NC(=O)[C@H](CO)NC(=O)[C@H](CC(N)=O)NC(=O)[C@H](Cc1c[nH]c2ccccc12)NC(=O)[C@H](CCC(N)=O)NC(=O)[C@H](N)Cc1ccc(O)cc1)C(=O)N[C@@H](Cc1ccccc1)C(N)=O
B15: Compound No. 210: [D-Tyr1,Ala4,Arg(Me)9]MS10 (peptide)
peptide: [dY]NWASFGL[Arg(Me)]F-NH2
modifications: N-terminus assumed
SMILES: CNC(=N)NCCC[C@H](NC(=O)[C@H](CC(C)C)NC(=O)CNC(=O)[C@H](Cc1ccccc1)NC(=O)[C@H](CO)NC(=O)[C@H](C)NC(=O)[C@H](Cc1c[nH]c2ccccc12)NC(=O)[C@H](CC(N)=O)NC(=O)[C@H](N)Cc1ccc(O)cc1)C(=O)N[C@@H](Cc1ccccc1)C(N)=O
B16: Compound No. 217: des(1)-[D-Tyr2,Arg(Me)9]MS10 (peptide)
peptide: [dY]WNSFGL[Arg(Me)]F-NH2
B17: Compound No. 228: des(1)-[D-Tyr2,Ile3,Arg(Me)9]MS10 (peptide)
peptide: [dY]INSFGL[Arg(Me)]F-NH2
B18: Compound No. 216: des(1)-[D-Asn2,Arg(Me)9]MS10 (peptide)
peptide: [dN]WNSFGL[Arg(Me)]F-NH2
B19: Compound No. 241: des(1)-[D-Tyr2,Thr3,AzaGly7,Arg(Me)9]MS10 (peptide)
peptide: [dY]TNSF[azaGly]L[Arg(Me)]F-NH2
B20: Compound No. 290: [D-Pya(3)1,D-Asn2,Cha3,AzaGly7,Arg(Me)9]MS10 (peptide)
peptide: [d3Pal][dN][Cha]NSF[azaGly]L[Arg(Me)]F-NH2
modifications: N-terminus assumed
SMILES: CNC(=N)NCCC[C@H](NC(=O)[C@H](CC(C)C)NC(=O)NNC(=O)[C@H](Cc1ccccc1)NC(=O)[C@H](CO)NC(=O)[C@H](CC(N)=O)NC(=O)[C@H](CC1CCCCC1)NC(=O)[C@@H](CC(N)=O)NC(=O)[C@H](N)Cc1cccnc1)C(=O)N[C@@H](Cc1ccccc1)C(N)=O
B21: Compound No. 279: des(1-3)-2-(Indol-3-yl)ethylcarbamoyl-[AzaGly7,Arg(Me)9]MS10 (peptide)
peptide: {2‑(indol-3-yl)ethylcarbamoyl}-NSF[azaGly]L[Arg(Me)]F-NH2
SMILES: CNC(=N)NCCC[C@H](NC(=O)[C@H](CC(C)C)NC(=O)NNC(=O)[C@H](Cc1ccccc1)NC(=O)[C@H](CO)NC(=O)[C@H](CC(N)=O)NC(=O)NCCc1c[nH]c2ccccc12)C(=O)N[C@@H](Cc1ccccc1)C(N)=O
B22: Compound No. 281: [D-Tyr1,Pya(2)6,Arg(Me)9]MS10 (peptide)
peptide: YNWNSXGLRF
modifications: D-Tyr1; Pya(2)6; Arg(Me)9; C-terminal amide

Legend:
[1] = molecular target: T1, human OT7T175 (metastin receptor) (human, UniProt Q969F8 1-398); test: cell-based or functional assay
[2] = molecular target: T1, human OT7T175 (metastin receptor); test: FMAT competition with Cy-5-labeled metastin (40-54), hOT7T175-expressed CHO cells
Description: h0T7T175-Expressed CHO cells were cultured in MEM-α medium (nucleic acid-free) containing 10% dialyzed serum. The medium was removed and the adherent cells were washed with PBS. Then, PBS containing 5 mM EDTA was added and the cells were scraped from a flask with a cell scraper. […] To each well of a 96-Well Black Clear Bottom Plate (Applied Biosystems, Inc.), 10 μL of assay buffer containing 1% dimethylsulfoxide was added to examine total binding, 10 μL of 10 μM non-labeled peptide (having the same amino acid sequence as that of the labeled one) solution diluted with assay buffer to examine non-specific binding, and 10 μL of a test compound diluted with assay buffer to examine the binding inhibition activity of the test compound, respectively. Furthermore, 90 μL each of the cell suspension was dispensed to each well. […] The specific binding is a value obtained by subtracting the non-specific binding from the total binding.

[3] = molecular target: T1, human OT7T175 (metastin receptor); test: cell-based or functional assay; remark: listed apart in the source

T1 sequence (Q969F8 whole entry L364H): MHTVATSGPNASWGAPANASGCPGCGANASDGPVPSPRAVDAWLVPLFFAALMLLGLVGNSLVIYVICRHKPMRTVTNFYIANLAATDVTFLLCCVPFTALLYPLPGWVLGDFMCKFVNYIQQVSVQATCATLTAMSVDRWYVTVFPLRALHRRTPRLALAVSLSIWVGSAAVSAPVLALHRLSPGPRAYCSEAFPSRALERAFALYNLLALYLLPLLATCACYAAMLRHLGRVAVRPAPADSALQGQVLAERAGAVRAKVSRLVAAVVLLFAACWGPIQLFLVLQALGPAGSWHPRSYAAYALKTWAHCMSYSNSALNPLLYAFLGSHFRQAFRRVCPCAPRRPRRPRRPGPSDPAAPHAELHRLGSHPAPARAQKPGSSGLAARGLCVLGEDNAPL

Binder | intracellular Ca ion level-increasing activity (FLIPR) [1] | IC50 [2] [nM] | intracellular Ca ion level-increasing activity (FLIPR) [3]
B1 | 2 specific activity to metastin (1-54) | 70 | –
B2 | 5 specific activity to metastin (1-54) | 680 | –
B3 | 10 specific activity to metastin (1-54) | 44 | –
B4 | 10 specific activity to metastin (1-54) | 250 | –
B5 | 10 specific activity to metastin (1-54) | 260 | –
B6 | 10 specific activity to metastin (1-54) | 85 | –
B7 | 10 specific activity to metastin (1-54) | 36 | –
B8 | 1 specific activity to metastin (1-54) | 830 | –
B9 | 1 specific activity to metastin (1-54) | 23 | –
B10 | 2 specific activity to metastin (1-54) | 190 | –
B11 | 1 specific activity to metastin (1-54) | 130 | –
B12 | 1 specific activity to metastin (1-54) | 100 | –
B13 | 1 specific activity to metastin (1-54) | 47 | –
B14 | 10 specific activity to metastin (1-54) | 390 | –
B15 | 1 specific activity to metastin (1-54) | 730 | –
B16 | 20 specific activity to metastin (1-54) | 250 | –
B17 | 5 specific activity to metastin (1-54) | 40 | –
B18 | 1 specific activity to metastin (1-54) | 700 | –
B19 | 1 specific activity to metastin (1-54) | 56 | –
B20 | – | 1.4 | 1 specific activity to metastin (1-54)
B21 | – | 29 | 5 specific activity to metastin (1-54)
B22 | – | 230 | 0.5 specific activity to metastin (1-54)
